Experimental data taken from patent US20180155451A1 (published 2018).

T1: FcγRIIb extracellular domain with C-terminal His tag (human, UniProt P31994 43-217)
T1 construct: extracellular domain; Soluble receptor expressed in FreeStyle293 cells, used as analyte in Biacore; also called FcgRIIb; CD32B; not shown: His tag at the C terminus
T1 sequence (looked up): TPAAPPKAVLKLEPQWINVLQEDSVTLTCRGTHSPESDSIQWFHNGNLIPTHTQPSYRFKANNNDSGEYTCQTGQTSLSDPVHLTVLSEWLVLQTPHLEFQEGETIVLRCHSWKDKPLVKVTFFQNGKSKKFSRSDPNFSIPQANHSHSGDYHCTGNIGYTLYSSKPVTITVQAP

T2: FcγRIIb (human, UniProt P31994 43-217)
T2 construct: extracellular domain; also called FcgRIIb; 2b; not shown: His tag at the C terminus
T2 sequence (looked up): T1 sequence (looked up)

T3: FcγRIIb extracellular domain with C-terminal His tag (human, UniProt P31994 43-217)
T3 construct: extracellular domain; also called FcgRIIb; 2b; not shown: His tag at the C terminus
T3 sequence (looked up): T1 sequence (looked up)

B1: GpH7-A5/GpH7-B3 variant P271_06M/GpL16-k0 (antibody, human IgG1, kappa)
heavy 1: not shown
heavy 2: not shown
light: DIVMTQSPLSLPVTPGEPASISCQASESLVHSNRNTYLHWYLQKPGQSPQLLIYKVSNRFSGVPDRFSGSGSGTDFTLKISRVEAEDVGVYYCSQNTHVPPTFGQGTKVEIERTVAAPSVFIFPPSDEQLKSGTASVVCLLNNFYPREAKVQWKVDNALQSGNSQESVTEQDSKDSTYSLSSTLTLSKADYEKHKVYACEVTHQGLSSPVTKSFNRGEC
notes: Heterodimerized anti-glypican-3 IgG1; substitution in only one H chain; also called P271M; He Ab
B2: GpH7-B3 variant S324_01G/GpL16-k0 (homodimerized antibody, Ho Ab) (antibody, human IgG1, kappa)
heavy: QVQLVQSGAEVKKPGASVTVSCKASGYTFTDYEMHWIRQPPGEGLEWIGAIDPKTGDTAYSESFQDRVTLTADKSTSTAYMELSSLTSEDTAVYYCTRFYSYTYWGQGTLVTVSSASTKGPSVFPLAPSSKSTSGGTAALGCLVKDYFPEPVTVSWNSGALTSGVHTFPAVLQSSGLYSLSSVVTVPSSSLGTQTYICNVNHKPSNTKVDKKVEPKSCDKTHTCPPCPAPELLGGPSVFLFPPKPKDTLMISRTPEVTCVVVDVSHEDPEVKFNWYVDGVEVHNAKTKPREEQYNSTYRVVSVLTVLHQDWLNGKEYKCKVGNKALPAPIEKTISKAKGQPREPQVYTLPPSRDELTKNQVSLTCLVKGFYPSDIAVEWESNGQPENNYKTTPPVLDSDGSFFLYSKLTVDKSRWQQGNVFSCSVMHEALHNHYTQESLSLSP
light: B1 light
notes: Mutation in both H chains; also called S324_01G Ho Ab
B3: GpH7-A5/GpH7-B3 variant P271_12R/GpL16-k0 (antibody, human IgG1, kappa)
heavy 1: not shown
heavy 2: not shown
light: B1 light
notes: Heterodimerized anti-glypican-3 IgG1; substitution in only one H chain; also called P271R; He Ab
B4: GpH7-A5/GpH7-B3 variant P271_13S/GpL16-k0 (antibody, human IgG1, kappa)
heavy 1: not shown
heavy 2: not shown
light: B1 light
notes: Heterodimerized anti-glypican-3 IgG1; substitution in only one H chain; also called P271S; He Ab
B5: GpH7-A5/GpH7-B3 variant Q295_06M/GpL16-k0 (antibody, human IgG1, kappa)
heavy 1: not shown
heavy 2: not shown
light: B1 light
notes: Heterodimerized anti-glypican-3 IgG1; substitution in only one H chain; also called Q295M; He Ab
B6: GpH7-A5/GpH7-B3 variant P271_20W/GpL16-k0 (antibody, human IgG1, kappa)
heavy 1: not shown
heavy 2: not shown
light: B1 light
notes: Heterodimerized anti-glypican-3 IgG1; substitution in only one H chain; also called P271W; He Ab
B7: GpH7-A5/GpH7-B3 variant P271_18N/GpL16-k0 (antibody, human IgG1, kappa)
heavy 1: not shown
heavy 2: not shown
light: B1 light
notes: Heterodimerized anti-glypican-3 IgG1; substitution in only one H chain; also called P271N; He Ab
B8: GpH7-A5/GpH7-B3 variant S324_06M/GpL16-k0 (antibody, human IgG1, kappa)
heavy 1: not shown
heavy 2: not shown
light: B1 light
notes: heterodimerized IgG1; alteration in the GpH7-B3 H chain only; also called He Ab
B9: GpH7-A5/GpH7-B3 variant P271_15Y/GpL16-k0 (antibody, human IgG1, kappa)
heavy 1: not shown
heavy 2: not shown
light: B1 light
notes: Heterodimerized anti-glypican-3 IgG1; substitution in only one H chain; also called P271Y; He Ab
B10: GpH7-B3 variant S324_14T/GpL16-k0 (homodimerized antibody, Ho Ab) (antibody, human IgG1, kappa)
heavy: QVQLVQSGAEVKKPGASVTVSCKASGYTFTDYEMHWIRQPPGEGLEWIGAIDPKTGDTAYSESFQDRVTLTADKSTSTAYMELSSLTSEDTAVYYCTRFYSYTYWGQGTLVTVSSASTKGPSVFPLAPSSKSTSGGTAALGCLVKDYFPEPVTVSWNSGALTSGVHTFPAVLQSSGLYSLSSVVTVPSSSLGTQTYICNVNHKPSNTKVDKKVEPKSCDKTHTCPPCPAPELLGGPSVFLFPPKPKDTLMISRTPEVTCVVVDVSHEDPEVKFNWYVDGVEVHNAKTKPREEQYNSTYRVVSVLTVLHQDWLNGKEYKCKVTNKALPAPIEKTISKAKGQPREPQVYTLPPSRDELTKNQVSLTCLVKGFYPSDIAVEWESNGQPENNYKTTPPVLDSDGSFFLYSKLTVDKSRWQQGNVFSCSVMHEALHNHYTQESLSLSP
light: B1 light
notes: Mutation in both H chains; also called S324_14T Ho Ab
B11: GpH7-B3 variant S324_20W/GpL16-k0 (homodimerized antibody, Ho Ab) (antibody, human IgG1, kappa)
heavy: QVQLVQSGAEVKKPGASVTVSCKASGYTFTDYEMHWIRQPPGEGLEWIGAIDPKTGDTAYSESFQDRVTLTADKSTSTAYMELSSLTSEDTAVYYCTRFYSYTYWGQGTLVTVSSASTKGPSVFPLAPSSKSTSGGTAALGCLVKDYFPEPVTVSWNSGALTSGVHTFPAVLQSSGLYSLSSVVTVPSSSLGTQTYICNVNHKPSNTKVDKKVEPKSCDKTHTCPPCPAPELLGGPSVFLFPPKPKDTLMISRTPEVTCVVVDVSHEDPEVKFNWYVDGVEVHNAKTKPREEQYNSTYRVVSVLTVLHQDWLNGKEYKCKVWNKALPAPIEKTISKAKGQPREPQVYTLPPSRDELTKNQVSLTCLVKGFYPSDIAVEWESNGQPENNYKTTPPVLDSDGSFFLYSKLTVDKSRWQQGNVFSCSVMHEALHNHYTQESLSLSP
light: B1 light
notes: Mutation in both H chains; also called S324_20W Ho Ab
B12: GpH7-A5/GpH7-B3 variant A327_18N/GpL16-k0 (antibody, human IgG1, kappa)
heavy 1: not shown
heavy 2: not shown
light: B1 light
notes: as for B8
B13: GpH7-A5/GpH7-B3 variant P331_06M/GpL16-k0 (antibody, human IgG1, kappa)
heavy 1: not shown
heavy 2: not shown
light: B1 light
notes: as for B8
B14: GpH7-A5/GpH7-B3 variant Y300_19Q/GpL16-k0 (antibody, human IgG1, kappa)
heavy 1: not shown
heavy 2: not shown
light: B1 light
notes: Heterodimerized anti-glypican-3 IgG1; the substitution stands in the GpH7-B3 chain only; also called He Ab
B15: GpH7-A5/GpH7-B3 variant P331_04F/GpL16-k0 (antibody, human IgG1, kappa)
heavy 1: not shown
heavy 2: not shown
light: B1 light
notes: as for B8
B16: GpH7-A5/GpH7-B3 variant P271_07I/GpL16-k0 (antibody, human IgG1, kappa)
heavy 1: not shown
heavy 2: not shown
light: B1 light
notes: Heterodimerized anti-glypican-3 IgG1; substitution in only one H chain; also called P271I; He Ab
B17: GpH7-A5/GpH7-B3 variant S267_19Q/GpL16-k0 (antibody, human IgG1, kappa)
heavy 1: not shown
heavy 2: not shown
light: B1 light
notes: as for B14
B18: GpH7-A5/GpH7-B3 variant P271_16H/GpL16-k0 (antibody, human IgG1, kappa)
heavy 1: not shown
heavy 2: not shown
light: B1 light
notes: Heterodimerized anti-glypican-3 IgG1; substitution in only one H chain; also called P271H; He Ab
B19: GpH7-A5/GpH7-B3 variant P271_19Q/GpL16-k0 (antibody, human IgG1, kappa)
heavy 1: not shown
heavy 2: not shown
light: B1 light
notes: Heterodimerized anti-glypican-3 IgG1; substitution in only one H chain; also called P271Q; He Ab
B20: GpH7-A5/GpH7-B3 variant Q295_02A/GpL16-k0 (antibody, human IgG1, kappa)
heavy 1: not shown
heavy 2: not shown
light: B1 light
notes: Heterodimerized anti-glypican-3 IgG1; substitution in only one H chain; also called Q295A; He Ab

How the values were obtained:
[1] = molecular target: T4, FcγRIa extracellular domain with C-terminal His tag (human, UniProt P12314 16-292); test: SPR (Biacore), antibody captured via antigen peptide, FcγR as analyte; binding relative to GpH7-A5/GpH7-B3/GpL16-k0 = 100
T4 construct: extracellular domain; Soluble receptor expressed in FreeStyle293 cells, used as analyte in Biacore; also called FcgRI; CD64; not shown: His tag at the C terminus
T4 sequence (P12314 16-292): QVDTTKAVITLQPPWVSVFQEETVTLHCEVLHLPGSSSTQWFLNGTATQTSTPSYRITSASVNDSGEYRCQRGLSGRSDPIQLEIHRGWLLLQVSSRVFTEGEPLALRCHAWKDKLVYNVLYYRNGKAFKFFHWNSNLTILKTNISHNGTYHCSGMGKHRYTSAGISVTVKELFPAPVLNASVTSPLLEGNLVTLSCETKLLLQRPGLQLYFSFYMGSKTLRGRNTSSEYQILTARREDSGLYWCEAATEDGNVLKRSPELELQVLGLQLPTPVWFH

[2] = molecular target: T1, FcγRIIb extracellular domain with …; test: as above
[3] = molecular target: T5, FcγRIIIa extracellular domain with C-terminal His tag (human, UniProt P08637 17-208); test: SPR (Biacore), antibody captured on antigen-peptide chip, FcγR analyte, relative binding
T5 construct: extracellular domain; also called 3a; FcgRIIIa
T5 sequence (P08637 17-208): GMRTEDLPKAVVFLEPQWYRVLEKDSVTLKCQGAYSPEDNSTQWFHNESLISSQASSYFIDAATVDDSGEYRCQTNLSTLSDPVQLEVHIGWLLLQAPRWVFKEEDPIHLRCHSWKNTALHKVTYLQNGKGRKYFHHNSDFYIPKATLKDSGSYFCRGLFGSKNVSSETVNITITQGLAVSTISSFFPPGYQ

FcγRIa = molecular target: T6, FcγRIa (human, UniProt P12314 16-292); test: SPR (Biacore), antibody captured, FcγR as analyte; binding as % of GpH7-A5/GpH7-B3/GpL16-k0
T6 construct: extracellular domain; also called FcgRI; 1a; not shown: His tag at the C terminus
T6 sequence (P12314 16-292): as the sequence (P12314 16-292) above

FcγRIIb = molecular target: T2, FcγRIIb; test: as above
[4] = molecular target: T7, FcγRIIIa extracellular domain with C-terminal His tag (human, UniProt P08637 17-208); test: SPR (Biacore), antibody captured on antigen peptide chip, FcγR as analyte; relative binding amount
T7 construct: extracellular domain; also called FcgRIIIa; 3a; not shown: His tag at the C terminus
Experimental: (§1) Analysis of interaction between objective antibody and the FcγR was carried out using Biacore T100 (GE Healthcare). HBS-EP+ (GE Healthcare) was used as the running buffer, and the measurement temperature was set to 25° C. Chips produced by immobilizing the antigen peptide by the amine coupling method to a Series S Sencor Chip CM5 (GE Healthcare), or alternatively, chips produced by allowing preliminarily biotinylated antigen peptides to interact with and immobilize onto a Series S Sensor Chip SA (certified) (GE Healthcare) were used. Antibodies of interest were captured onto an antigen peptide-immobilized chip, and allowed to interact to each FcγR diluted with running buffer. To regenerate and repeatedly use the chip, the antibodies captured on the chip were washed off by reacting 10 mM glycine-HCl, pH 1.5.
(§2) The FcγR-binding activity of each antibody was assessed primarily using as an indicator the FcγR-binding activity and dissociation constant for FcγR.
T7 sequence (P08637 17-208): as the sequence (P08637 17-208) above

[5] = molecular target: T3, FcγRIIb extracellular domain with …; test: as above
Experimental: as §1, §2

Row | Binder | He/Con_1a [1] | He/Con_2b [2] | other results
1 | B1 | 102 % of control (GpH7-A5/GpH7-B3/GpL16-k0 = 100) | 77.5 % of control (GpH7-A5/GpH7-B3/GpL16-k0 = 100) | –
2 | B2 | – | – | Ho/Con_3a [3]: 119 % of GpH7-B3/GpL16-k0 (=100)
3 | B3 | 102 % of control (GpH7-A5/GpH7-B3/GpL16-k0 = 100) | 86.5 % of control (GpH7-A5/GpH7-B3/GpL16-k0 = 100) | –
4 | B4 | 102 % of control (GpH7-A5/GpH7-B3/GpL16-k0 = 100) | 87.6 % of control (GpH7-A5/GpH7-B3/GpL16-k0 = 100) | –
5 | B5 | 104 % of control (GpH7-A5/GpH7-B3/GpL16-k0 = 100) | 90.4 % of control (GpH7-A5/GpH7-B3/GpL16-k0 = 100) | –
6 | B6 | 103 % of control (GpH7-A5/GpH7-B3/GpL16-k0 = 100) | 58.1 % of control (GpH7-A5/GpH7-B3/GpL16-k0 = 100) | –
7 | B7 | 103 % of control (GpH7-A5/GpH7-B3/GpL16-k0 = 100) | 93.3 % of control (GpH7-A5/GpH7-B3/GpL16-k0 = 100) | –
8 | B8 | – | – | He/Con_1a (FcγRIa): 99.2 % of control; He/Con_2b (FcγRIIb): 112 % of control
9 | B9 | 103 % of control (GpH7-A5/GpH7-B3/GpL16-k0 = 100) | 52.3 % of control (GpH7-A5/GpH7-B3/GpL16-k0 = 100) | –
10 | B10 | – | – | Ho/Con_3a [3]: 108 % of GpH7-B3/GpL16-k0 (=100)
11 | B11 | – | – | Ho/Con_3a [3]: 102 % of GpH7-B3/GpL16-k0 (=100)
12 | B12 | – | – | He/Con_1a (FcγRIa): 97.7 % of control; He/Con_2b (FcγRIIb): 113 % of control
13 | B13 | – | – | He/Con_1a (FcγRIa): 93.6 % of control; He/Con_2b (FcγRIIb): 102 % of control
14 | B14 | – | – | He/Con_3a [4]: 96.3 % of GpH7-A5/GpH7-B3/GpL16-k0 (=100); He/Con_2b [5]: 108 % of GpH7-A5/GpH7-B3/GpL16-k0 (=100)
15 | B15 | – | – | He/Con_1a (FcγRIa): 95.5 % of control; He/Con_2b (FcγRIIb): 110 % of control
16 | B16 | 102 % of control (GpH7-A5/GpH7-B3/GpL16-k0 = 100) | 76.8 % of control (GpH7-A5/GpH7-B3/GpL16-k0 = 100) | –
17 | B17 | – | – | He/Con_3a [4]: 65 % of GpH7-A5/GpH7-B3/GpL16-k0 (=100); He/Con_2b [5]: 218 % of GpH7-A5/GpH7-B3/GpL16-k0 (=100)
18 | B18 | 102 % of control (GpH7-A5/GpH7-B3/GpL16-k0 = 100) | 67.9 % of control (GpH7-A5/GpH7-B3/GpL16-k0 = 100) | –
19 | B19 | 103 % of control (GpH7-A5/GpH7-B3/GpL16-k0 = 100) | 88.6 % of control (GpH7-A5/GpH7-B3/GpL16-k0 = 100) | –
20 | B20 | 104 % of control (GpH7-A5/GpH7-B3/GpL16-k0 = 100) | 79.7 % of control (GpH7-A5/GpH7-B3/GpL16-k0 = 100) | –
